From US6830937 (Bristol-Myers Squibb, dated 2004) come the findings set out here.

Test [1] addresses B7 antigen (UniProt P33681). In words: flow cytometry, direct staining of Raji cells (BL), no unlabeled BB-1. In general terms: Flow cytometry measures light scatter and fluorescence of single cells or particles in a stream.
In test [2] the target is B7 antigen (UniProt P33681). The test can be described thus: flow cytometry, direct staining of 5E1 cells (B-LCL), no unlabeled BB-1.
Test [3] deals with B7 antigen (UniProt P33681). In words: cell-based or functional assay.
Test [4] deals with B7 antigen (UniProt P33681). In words: flow cytometry, direct staining of Daudi cells after preincubation with unlabeled BB-1.
Test [5] concerns the target B7 antigen (UniProt P33681). In words: flow cytometry, direct staining of Daudi cells (BL), no unlabeled BB-1.
Test [6] concerns the target B7 antigen (UniProt P33681). The test can be described thus: flow cytometry, direct staining of T51 cells (B-LCL), no unlabeled BB-1.
Test [7] concerns the target B7Ig fusion protein (human) [IgG part: P01857]. The test can be described thus: competition of 125I-B7Ig binding to immobilized CD28Ig.
Test [8] concerns the target B7 antigen (UniProt P33681). In words: flow cytometry, direct staining of Jijoye cells (BL), no unlabeled BB-1.
In test [9] the target is B7 antigen (UniProt P33681). In words: flow cytometry, direct staining of Raji cells after preincubation with unlabeled BB-1.
Test [10] has as its target B7 antigen (UniProt P33681). The test can be described thus: flow cytometry, direct staining of T51 cells after preincubation with unlabeled BB-1.
The target in test [11] is B7 antigen (UniProt P33681). The test can be described thus: flow cytometry, direct staining of Jijoye cells after preincubation with unlabeled BB-1.
In test [12] the target is B7 antigen (UniProt P33681). The test can be described thus: flow cytometry, direct staining of 5E1 cells after preincubation with unlabeled BB-1.
In test [13] the target is T1, CD28 receptor (human, UniProt P10747 19-220). In words: flow cytometry, direct staining of CD28+ CHO cells.
Test [14] addresses T1, CD28 receptor. The test can be described thus: flow cytometry, direct staining of phytohemagglutinin-stimulated T cells.
Test [15] has as its target T1, CD28 receptor. In words: cell-based or functional assay.

As to mAb BB-1 (anti-B7) (antibody), the mean fluorescence, -COLD worked out at 7.1 linear units with B7 antigen [1]; 13 linear units with B7 antigen [2]; 6.4 linear units in the test with B7 antigen [5]; 16.4 linear units in the test with B7 antigen [6]; 17.8 linear units with B7 antigen [8]. In the test with B7 antigen [3], this molecule gave a [3H]-T incorporation by PHA blasts stimulated with B7+ CHO cells (40:1), BB-1 at 10 µg/ml of 98300 cpm. This molecule yielded an inhibition of adhesion of Jijoye cells to CD28+ CHO cells with B7 antigen [3] of 60%. The mean fluorescence, +COLD with B7 antigen [4] was determined as 2.8 linear units; with B7 antigen [9], 2.8 linear units; with B7 antigen [10], 3 linear units; with B7 antigen [11] it was 2.8 linear units; with B7 antigen [12] it was 2.4 linear units. The IC50 (usually the concentration that inhibits the measured activity by half) in [7] is 140 nM.
“monoclonal antibody (mAb) 9.3 (anti-CD28)”: in the test with CD28 receptor [13], the mean channel fluorescence (linear fluorescence units) turned out to be 116. The molecule also registered a mean channel fluorescence (linear fluorescence units) with CD28 receptor [14] of 11.3. In the test with CD28 receptor [15], the [3H]-T incorporation by PBL, +Anti-CD3, Exp. 1, mAb 9.3 (immob.) turned out to be 137000 cpm; the [3H]-T incorporation by PBL, +Anti-CD3, Exp. 1, mAb 9.3 (soln.) amounted to 156000 cpm; the [3H]-T incorporation by PBL, +Anti-CD3, Exp. 2, mAb 9.3 (soln.) was 75800 cpm; the [3H]-T incorporation by PBL, -Anti-CD3, Exp. 1, mAb 9.3 (immob.) came out at 100 cpm. In the test with CD28 receptor [15], this molecule returned a [3H]-T incorporation by PBL, -Anti-CD3, Exp. 1, mAb 9.3 (soln.) of 300 cpm; a [3H]-T incorporation by PBL, -Anti-CD3, Exp. 2, mAb 9.3 (soln.) of 400 cpm; a half-maximal inhibition of CD28-mediated adhesion (PM lymphoblastoid cells to CD28+ CHO cells) of 10 nM; an inhibition of adhesion of B7 transfected COS cells to CD28+ CHO cells when EDTA was omitted of 40%. Besides, in the test with CD28 receptor [15], the reduction of adhesion of T51 cells to CD28+ CHO cells by mAb 9.3 alone (no EDTA) was determined as 62% and the reduction of adhesion of T51 cells to CD28+ CHO cells by mAb 9.3 plus EDTA was found to be 93%.
Consider mAb 9.3 (Fab fragments), for which the [3H]-T incorporation by PHA blasts stimulated with B7+ CHO cells (40:1), 9.3 Fab at 10 µg/ml with CD28 receptor [15] turned out to be 132000 cpm.

B1: B7 antigen (ligand, UniProt P33681 35-288, looked up)
chain: VIHVTKEVKEVATLSCGHNVSVEELAQTRIYWQKEKKMVLTMMSGDMNIWPEYKNRTIFDITNNLSIVILALRPSDEGTYECVVLKYEKDAFKREHLAEVTLSVKADFPTPSISDFEIPTSNIRRIICSTSGGFPEPHLSWLENGEELNAINTTVSQDPETELYAVSSKLDFNMTTNHSFMCLIKYGHLRVNQTFNWNTTKQEHFPDNLLPSWAITLISVNGIFVICCLTYCFAPRCRERRRNERLRRESVRPV
For the molecule B1, in the test with CD28 receptor [15], the “adhesion of 51Cr-labeled T51 cells to CD28+ CHO cells relative to CD28- CHO cells, with EDTA” value was 17 fold and the “adhesion of 51Cr-labeled T51 cells to CD28+ CHO cells relative to CD28- CHO cells, without EDTA” value is 5.5 fold.
